Where two headings read alike, the source gives them in different places.

The Kd is the constant that tells how readily two partners part at equilibrium.

What all share (assay): BLI
Background: Biolayer interferometry detects binding as a change in optical thickness at a sensor tip.

The target in data set [1] is T1, PfAlba6 Y28A (Plasmodium falciparum 3D7, UniProt Q8I617 1-96, Y28A).
T1 sequence: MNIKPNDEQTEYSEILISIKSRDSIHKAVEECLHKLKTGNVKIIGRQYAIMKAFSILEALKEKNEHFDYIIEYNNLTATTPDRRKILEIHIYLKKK

The next data set deals with T2, PfAlba6 (Plasmodium falciparum 3D7, UniProt Q8I617).
T2 sequence: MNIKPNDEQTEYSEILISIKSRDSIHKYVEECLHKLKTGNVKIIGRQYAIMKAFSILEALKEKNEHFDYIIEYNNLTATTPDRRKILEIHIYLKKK

For data set [2], the target named is T1, PfAlba6 Y28A. The source holds these as a separate data set.

B1: 28 bp dsDNA (C28) (dsDNA)
DNA 1: TGGCGAAAGGGGGTTGTGCTGCAAGGCG
DNA 2: CGCCTTGCAGCACAACCCCCTTTCGCCA
In the case of B1, the Kd with PfAlba6 Y28A [1] worked out at 12.1 ± 0.83 nM; with PfAlba6 it was 10 ± 0.37 nM; with PfAlba6 Y28A [2], 10 ± 0.9 nM.
